From patent US20120045393A1 (priority 2009, published 2012)
“Also recorded” adds a separate entry of the source. Like-named read-outs stand apart in the source and are kept apart here. Each block holds one molecule with its values, some of them ahead of it. Non-standard residues stand in square brackets, D forms with d. *: point of attachment. Bpa = N[C@@H](Cc1ccc(C(=O)c2ccccc2)cc1)C(=O)O; d2Nal = N[C@H](Cc1ccc2ccccc2c1)C(=O)O; pGlu = O=C1CC[C@@H](C(=O)O)N1; DO3A10CM = not defined here; Hpgly = not defined here; Mogly = not defined here; azaGly = NNC(=O)O; Sar = CNCC(=O)O; 125I = [125I]*

How the values were obtained:
[1] = plasma (blood) and urine samples collected post injection in normal mice; settings: up to 60 min post injection
[2] = kidney homogenate stock solution; settings: female Tac:NCr:Foxn1^nu/nu mice, 37° C., up to 60 min
[3] = liver homogenate; settings: female Tac:NCr:Foxn1^nu/nu mice, 37° C., up to 60 min
[4] = kidney homogenate; settings: female Tac:NCr:Foxn1^nu/nu mice, 37° C., up to 60 min
[5] = tested on: LHRH-II-receptor-positive but LHRH-1-receptor-negative ovarian SK-OV-3 cell lines; settings: cited from earlier work
[6] = target: LHRH receptor (LHRH binding sites) on EFO-27 human ovarian cancer cells (human); experiment: internalization/efflux study, cell-associated radioactivity, EFO-27 cells, 212 fmoles added/well
[7] = target: LHRH receptor (LHRH binding sites) on PC-3 human prostate cancer cells (human); experiment: internalization/efflux study, cell-associated radioactivity, PC-3 cells
[8] = target: LHRH receptor (LHRH binding sites) on EFO-27 human ovarian cancer cells (human); experiment: direct binding of 177Lu-labeled peptide to EFO-27 cells, single concentration
[9] = target: LHRH receptor (LHRH binding sites) on PC-3 human prostate cancer cells (human); experiment: internalization/efflux study, cell-associated radioactivity, PC-3 cells, 230 fmoles added/well
[10] = target: LHRH receptor (LHRH binding sites) on EFO-27 human ovarian cancer cells (human); experiment: internalization/efflux study, cell-associated radioactivity, EFO-27 cells
[11] = target: LHRH receptor (LHRH binding sites) on EFO-27 human ovarian cancer cells (human); experiment: internalization/efflux study, cell-associated radioactivity, EFO-27 cells, 205 fmoles added/well
[12] = target: LHRH receptor (LHRH binding sites) on EFO-27 human ovarian cancer cells (human); experiment: saturation binding to EFO-27 cells, single-site fit
[13] = target: LHRH receptor (LHRH binding sites) on EFO-27 human ovarian cancer cells (human); experiment: internalization/efflux study, cell-associated radioactivity, EFO-27 cells, 156 fmoles added/well
[14] = target: LHRH receptor (LHRH binding sites) on EFO-27 human ovarian cancer cells (human); experiment: internalization/efflux study, cell-associated radioactivity, EFO-27 cells, 203 fmoles added/well
[15] = target: T1, LHRH binding sites on EFO-27 human ovarian cancer cells (human); experiment: competition with [125I-Tyr8]BRU-2477 on EFO-27 cells
T1 chain: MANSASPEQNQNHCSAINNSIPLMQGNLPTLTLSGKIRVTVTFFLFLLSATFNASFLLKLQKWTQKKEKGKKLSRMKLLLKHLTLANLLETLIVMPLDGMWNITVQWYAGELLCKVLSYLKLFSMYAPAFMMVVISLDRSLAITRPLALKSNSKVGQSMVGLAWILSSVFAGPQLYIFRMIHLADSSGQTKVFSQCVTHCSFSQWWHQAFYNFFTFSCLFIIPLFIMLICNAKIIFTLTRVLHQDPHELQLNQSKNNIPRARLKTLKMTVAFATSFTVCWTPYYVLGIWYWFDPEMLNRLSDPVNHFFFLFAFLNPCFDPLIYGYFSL

[16] = target: T1, LHRH binding sites (presumed LHRH …); experiment: as above
[17] = target: T1, LHRH binding sites (presumed LHRH …); experiment: as above
[18] = target: T1, LHRH binding sites (presumed LHRH …); experiment: as above
[19] = target: LHRH receptor (LHRH binding sites) on EFO-27 human ovarian cancer cells (human); experiment: internalization/efflux study, cell-associated radioactivity, EFO-27 cells, 292 fmoles added/well
[20] = target: T1, LHRH binding sites (presumed LHRH …); experiment: competition with [125I-Tyr8]BRU-2477 on EFO-27 cells
[21] = target: T1, LHRH binding sites (presumed LHRH …); experiment: as above
[22] = target: LHRH receptor (LHRH binding sites) on EFO-27 human ovarian cancer cells (human); experiment: internalization/efflux study, cell-associated radioactivity, EFO-27 cells, 78 fmoles added/well

cleaved bond [1]: Bpa48-Pro9, major
fragment found [1]: BRU-3046; BRU-2813[1-7]-OH
cleaved bond [3]: Bpa48-Pro9, major
cleaved bond [4]: Bpa48-Pro9, major
Molecule: Lu-DOTA-Dnal2-Arg-Trp-Ser-His-Darg-Trp-Bpa4-Pro-azaGly-NH2
cleaved bond [2]: Bpa48-Pro9, major; also recorded: Trp7-Bpa48, major

Molecule: LHRH-II: native Chicken II LHRH: pGlu-His-Trp-Ser-His-Gly-Trp-Tyr-Pro-Gly-NH2 (EHWSHGWYPG; HELM PEPTIDE1{[Glp].H.W.S.H.G.W.Y.P.G.[am]}$$$$V2.0; SMILES NC(=O)CNC(=O)[C@@H]1CCCN1C(=O)[C@H](Cc1ccc(O)cc1)NC(=O)[C@H](Cc1c[nH]c2ccccc12)NC(=O)CNC(=O)[C@H](Cc1c[nH]cn1)NC(=O)[C@H](CO)NC(=O)[C@H](Cc1c[nH]c2ccccc12)NC(=O)[C@H](Cc1c[nH]cn1)NC(=O)[C@@H]1CCC(=O)N1)
antiproliferative effect [5]: showed antiproliferative effect

Bound fmoles [6]: 40.5 fmol
Bound % [7]: 19.3%
% Bound [8]: 18.8%
Bound fmoles [9]: 44.3 fmol
Bound % [10]: 19.1%
B1: ^177Lu-BRU-2813 (peptide)
peptide: XRWSHXWXPX
modifications: 177Lu held by the N-terminal DO3A10CM: 177Lu-DO3A10CM-Dnal2-Arg-Trp-Ser-His-Darg-Trp-Bpa4-Pro-azaGly-NH2

% Bound [8]: 13.2%
Bound fmoles [11]: 25 fmol
Bound % [10]: 12.2%
Kd [12]: 0.92 µM
Max. binding (Bmax) (pmoles/10^6 cells) [12]: 183
Receptors/cell (receptors/cell) [12]: 1.1e+08
B2: ^177Lu-BRU-2666 (peptide)
peptide: XHWSHXWXPX
modifications: 177Lu held by the N-terminal DO3A10CM: 177Lu-DO3A10CM-Dnal2-His-Trp-Ser-His-Darg-Trp-Bpa4-Pro-azaGly-NH2

Bound fmoles [13]: 1.87 fmol
Bound % [10]: 1.2%
Kd [12]: 1.29 µM
Max. binding (Bmax) (pmoles/10^6 cells) [12]: 141
Receptors/cell (receptors/cell) [12]: 8.5e+07
Molecule: [pGlu]HWSH[dR]WY(125I)P[azaGly]-NH2 [[Darg^6, ^125I-Tyr^8, azaGly^10]-LHRH-II]

% Bound [8]: 4.64%
Bound fmoles [14]: 4.1 fmol
Bound % [10]: 2.02%
B3: ^177Lu-BRU-2797 (peptide)
peptide: DO3A10CM-G[Hpgly]HWSH[dR]W[Bpa]P[azaGly]-NH2
modifications: reading uncertain; also: 177Lu complexed by DO3A10CM, printed as 177Lu-DO3A10CM-Gly-Hpgly-His-Trp-Ser-His-Darg-Trp-Bpa4-Pro-azaGly-NH2

EC50 [15]: 2.67 µM
EC50 [16]: 2.67 µM
Molecule: DO3A10CM-[Sar]HWSH[dR]WWP[azaGly]-NH2 (reading uncertain, AA8 Trp) [BRU-2724]

EC50 [17]: 2.6 µM
fold lower binding potency than BRU-2813 [18]: ~8 fold
Molecule: DO3A10CM-[d2Nal]RESH[dR]W[Bpa]P[azaGly]-NH2 (reading uncertain, AA3 Glu) [BRU-3110]

% Bound [8]: 23.5%
Bound fmoles [19]: 68.8 fmol
Bound % [10]: 23.6%
B4: ^177Lu-BRU-2968 (peptide)
peptide: XRWSHXWXP
modifications: 177Lu held by the N-terminal DO3A10CM: 177Lu-DO3A10CM-Dnal2-Arg-Trp-Ser-His-Darg-Trp-Bpa4-Pro-Da15o3pt

EC50 [20]: 15.9 µM
EC50 [21]: 15.9 µM
B5: BRU-3046 (peptide)
peptide: XRWSHXW
modifications: DO3A10CM on N-terminus; AA1 Dnal2; AA6 Darg; AA8-AA10 absent; C-terminal free acid

Bound fmoles [22]: 0.93 fmol
Bound % [10]: 1.2%
B6: ^177Lu-BRU-2796 (peptide)
peptide: DO3A10CM-G[Mogly]HWSH[dR]W[Bpa]P[azaGly]-NH2
modifications: reading uncertain; also: 177Lu complexed by DO3A10CM, printed as 177Lu-DO3A10CM-Gly-Mogly-His-Trp-Ser-His-Darg-Trp-Bpa4-Pro-azaGly-NH2
